Data as given in US20140017235A1.

Target: human NGF (human), P01138
Experiment: cell-based or functional assay

human NGF (human), P01138, sequence (P01138 122-241 limits assumed): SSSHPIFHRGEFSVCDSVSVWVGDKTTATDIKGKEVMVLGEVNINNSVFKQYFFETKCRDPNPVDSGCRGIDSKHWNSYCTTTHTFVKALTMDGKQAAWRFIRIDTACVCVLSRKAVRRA

B1: antibody E3 (full antibody) (antibody, human IgG2, kappa)
heavy: QVQLQESGPGLVKPSETLSLTCTVSGFSLIGYDLNWIRQPPGKGLEWIGIIWGDGTTDYNSAVKSRVTISKDTSKNQFSLKLSSVTAADTAVYYCARGGYWYATSYYFDYWGQGTLVTVSSASTKGPSVFPLAPCSRSTSESTAALGCLVKDYFPEPVTVSWNSGALTSGVHTFPAVLQSSGLYSLSSVVTVPSSNFGTQTYTCNVDHKPSNTKVDKTVERKCCVECPPCPAPPVAGPSVFLFPPKPKDTLMISRTPEVTCVVVDVSHEDPEVQFNWYVDGVEVHNAKTKPREEQFNSTFRVVSVLTVVHQDWLNGKEYKCKVSNKGLPSSIEKTISKTKGQPREPQVYTLPPSREEMTKNQVSLTCLVKGFYPSDIAVEWESNGQPENNYKTTPPMLDSDGSFFLYSKLTVDKSRWQQGNVFSCSVMHEALHNHYTQKSLSLSPGK
light: not shown
modifications: not checked
- antibody concentration that totally blocked NGF-elicited survival of trigeminal neurons: 20 nM
